Here are results for six molecules from US20230295324A1 (published 2023).

B1: PR002063 (antibody, human IgG1, V domains shown)
VH: EVQLLESGGGLVQPGGSLRLSCAASGFTFSSYAMSWVRQAPGRGLEWVSAISGGGGSTFYADSVRGRFTISRDNSKNTLYLQMSSLRAEDTAVYYCANGMTGTTDVDYWGQGTRVTVSS
notes: no light chain; also called anti-OX40 HCAb antibody
B2: PR002065 (antibody, human IgG1, V domains shown)
VH: B1 VH with L5V, R43K, G54R, G56D, S57I, S84N, V93L, T103S, Y108F, R114L
notes: as for B1
B3: PR002077 (antibody, human IgG1, V domains shown)
VH: B1 VH with R43K, G54R, G56N, S57I, S84N, M100I, R114L
notes: as for B1
B4: PR002066 (antibody, human IgG1, V domains shown)
VH: B1 VH with A23I, R43K, G54R, S84N, R114Q
notes: as for B1
B5: Pogalizumab analog (PR003475) (antibody, human IgG1, kappa, V domains shown)
VH: EVQLVQSGAEVKKPGASVKVSCKASGYTFTDSYMSWVRQAPGQGLEWIGDMYPDNGDSSYNQKFRERVTITRDTSTSTAYLELSSLRSEDTAVYYCVLAPRWYFSVWGQGTLVTVSS
VL: DIQMTQSPSSLSASVGDRVTITCRASQDISNYLNWYQQKPGKAPKLLIYYTSRLRSGVPSRFSGSGSGTDFTLTISSLQPEDFATYYCQQGHTLPPTFGQGTKVEIKR
notes: Conventional IgG antibody; also called Tab
B6: PR001331 (antibody, human IgG1, kappa, V domains shown)
VH: QVQLVESGGGVVQPGRSLRLSCSASGFTFINYGMNWVRQAPGKGLEWVAVIWYDGSNKYYADSVRGRFTISRDNSKNTLYLQMNSLRAEDTAVYYCARGPGYGGHSDAFDIWGQGTMVTVSS
VL: DIQMTQSPSSLSASIGDRVTITCRASQSINSYLNWYQQKPGKAPKLLIYTASSLLSGVPSRFSASGSWTDFSLTISSLQPEDFATYYCQQSFSTPYTFGQGTNLEIKR
notes: H2L2 parental antibody against PSMA; also called anti-PSMA H2L2 antibody

Changes are numbered by the printed parent chain.

The target of the first test is T1, human OX40 protein (Acro biosystem, #OX0-H5224) (human, UniProt P43489 29-216).
T1 construct: Bought recombinant protein
T1 sequence (looked up): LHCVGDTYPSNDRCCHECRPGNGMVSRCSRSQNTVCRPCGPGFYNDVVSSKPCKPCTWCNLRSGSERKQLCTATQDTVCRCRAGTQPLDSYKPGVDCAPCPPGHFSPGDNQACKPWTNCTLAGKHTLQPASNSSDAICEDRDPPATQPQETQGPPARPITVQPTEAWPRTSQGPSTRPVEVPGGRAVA
Nature of the test: ELISA, coated human OX40 protein. How it is done: (§1) This example is intended to investigate the in vitro binding activity of the anti-OX40 HCAb monoclonal antibodies prepared in Example 1 to human and cynomolgus monkey OX40 proteins. The antibody binding assay at the protein level was performed using a human OX40 protein (Acro biosystem, #OX0-H5224) and a cynomolgus monkey OX40 protein (Novoprotein, #CB17). Briefly, a 384-well plate (PerkinElmer, #6007509) was coated with 1 μg/mL human OX40 protein and a cynomolgus monkey OX40 protein dissolved in PBS at 20 μL/well, and incubated at 4° C. overnight. The next day, the 384-well plate was washed three times with PBS containing 0.05% Tween (MEDICAGO, #09-9410-100), and blocked with PBS containing 2% milk (Bio-Rad, #170-6404) at 37° C. for 1 h. […] The plate was added with a stop buffer (BBI life sciences, #E661006-0200) at 20 μL/well, and read for OD₄₅₀₋₆₅₀ values using a plate reader (Molecular Devices, model: SpectraMax Plus). The values were analyzed with Graphad 8.0 and plotted.
Broadly, the EC50 is the midpoint of the concentration-response curve. Take B1: a half-maximal effect (EC50) was put at 0.101 nM and the “Maximum OD” value was 2.28 OD.
With B2, a half-maximal effect (EC50) was put at 0.0639 nM and the “Maximum OD” value is 2.47 OD.
As for B3, the midpoint of the response, the EC50, lay at 0.146 nM and the “Maximum OD” value amounted to 2.67 OD.
For B4, the EC50 is 0.118 nM and the “Maximum OD” value was found to be 2.47 OD.

The target of a further test is T2, human OX40 on cells (CHO-K1/hu OX40) (human, UniProt P43489 29-277).
T2 sequence (looked up): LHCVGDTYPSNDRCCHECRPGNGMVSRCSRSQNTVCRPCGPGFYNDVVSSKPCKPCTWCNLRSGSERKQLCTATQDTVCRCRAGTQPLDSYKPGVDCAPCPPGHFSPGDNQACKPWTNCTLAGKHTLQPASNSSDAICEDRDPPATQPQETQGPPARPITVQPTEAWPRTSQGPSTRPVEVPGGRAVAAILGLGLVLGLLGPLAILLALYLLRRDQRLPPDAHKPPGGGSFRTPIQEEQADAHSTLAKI
Nature of the test: cell-based or functional assay.
For the molecule B1, the “EC50, HEK293/OX40/NF-kb luciferase reporter” value is 8.64 nM and the “Maximum fluorescence signal value, HEK293/OX40/NF-kb luciferase reporter” value came out at 150000 luminescence.
For B2 the same measures were 8.55 nM and 149000 luminescence.
For B3 the same measures were 3.51 nM and 113000 luminescence.
Regarding B4, the “EC50, HEK293/OX40/NF-kb luciferase reporter” value came out at 5.45 nM and the “Maximum fluorescence signal value, HEK293/OX40/NF-kb luciferase reporter” value turned out to be 147000 luminescence.

In a further test the target is T2, human OX40 on cells (CHO-K1/hu OX40). Nature of the test: cell-based or functional assay. The source holds these as a separate data set.
Turning to B4, the “EC50, IFN-γ release by human T cells with OKT3 and CHO-K1-CD32b cells” value is 0.031 nM; the “Maximum IFN-γ release value” was found to be 1870.

Another test addresses T1, human OX40 protein (Acro biosystem, …). The test is described as follows: BLI, antibody on ProA sensor, 1:1 global fit. The method, then:
(§2) The binding kinetics between the antigen and the antibody was analyzed by the Biolayer Interferometry (BLI) technique using an Octet Red 96e molecular interaction analyzer (Fortebio).
(§3) The association and dissociation signals between the OX40 antibodies and OX40 proteins were recorded by Octet Red 96 in real time. When data analysis was performed using Octet Data Analysis software (Fortebio, version 11.0), 0 nM was used as a reference hole, and reference subtraction was performed; the “1:1 Global fitting” method was selected to fit the data, and the kinetics parameters of the binding of antigens to antigen-binding proteins were calculated, with kon(1/Ms) values, kdis(1/s) values and KD(M) values obtained.
A general note: BLI is a label-free optical method that tracks binding on a fibre tip over time.
A word on the Kd: it is a measure of binding affinity in units of concentration. Broadly, the koff is the rate constant with which the complex falls apart. As usually defined, the kon is a measure of how fast the partners come together. On to B1, for which binding was characterised by a dissociation constant (Kd) of 13 nM, the koff was 0.000511 s⁻¹ and the on-rate constant (kon) stood at 39200 M⁻¹ s⁻¹.
Regarding B2, the Kd came to 6.79 nM, the koff turned out to be 0.000337 s⁻¹ and the kon turned out to be 49600 M⁻¹ s⁻¹.
The molecule B3 came in with a Kd of 10.6 nM, a koff of 0.000364 s⁻¹ and a kon of 34300 M⁻¹ s⁻¹.
For B4 the same measures were 8.71 nM, 0.000387 s⁻¹ and 44400 M⁻¹ s⁻¹.

The target of a further test is T3, cynomolgus monkey OX40 protein (Novoprotein, #CB17) (cynomolgus monkey).
T3 construct: Bought recombinant protein; also called cyno OX40
The test is described as follows: BLI, antibody on ProA sensor, 1:1 global fit. How it is done:
as §2, §3
B5: the Kd is 0.0894 nM.
B1 returned a Kd of 53.4 nM, a koff of 0.00192 s⁻¹ and a kon of 36000 M⁻¹ s⁻¹.
Molecule B2 returned a Kd of 33.7 nM, a koff of 0.00104 s⁻¹ and a kon of 30800 M⁻¹ s⁻¹.
Molecule B3 came in with a Kd of 22.1 nM, a koff of 0.000722 s⁻¹ and a kon of 32700 M⁻¹ s⁻¹.
For B4 the same measures were 22.7 nM, 0.00097 s⁻¹ and 42700 M⁻¹ s⁻¹.

The next test addresses T2, human OX40 on cells (CHO-K1/hu OX40). The test is described as follows: FACS, blocking of biotin-human OX40L on CHO-K1/hu OX40 cells. How it is done: Briefly, the CHO-K1/hu OX40 cells were digested and resuspended in an F-12K complete medium, and the cell density was adjusted to 1×10⁶ cells/mL. The cells were seeded in a 96-well V-bottom plate (Corning, #3894) at 100 μL/well, and centrifuged, and then the supernatant was discarded. The test antigen-binding proteins diluted in a 3-fold gradient at concentrations that were 2 times the final concentrations were added at 100 μL/well, and the mixture was well mixed, wherein the antigen-binding protein had the highest final concentration of 100 nM, and a total of 8 concentrations were obtained. […] The cells were incubated at 4° C. for 1 h away from light. Thereafter, the cells were centrifuged at 4° C. for 5 min, and then the supernatant was discarded. […] The cells in each well were rinsed twice with 100 μL of pre-cooled PBS, and centrifuged at 500 g at 4° C. for 5 min, and then the supernatant was discarded. A 1:200 fluorescent secondary antibody PE Streptavidin (BD Biosciences, #554061) was added at 100 μL/well, and the cells were incubated away from light at 4° C. for 30 min. The cells in each well were rinsed twice with 200 μL of pre-cooled PBS, and centrifuged at 500 g at 4° C. for 5 min, and then the supernatant was discarded. Finally, the cells in each well were resuspended in 200 μL of precooled PBS. Fluorescence signal values were read using BD FACS CANTOII, and IC50 was calculated. Inhibition rate %={average MFI of non-blocking control well−MFI value of OX40 antibody}/{(average MFI of non-blocking control well)−average MFI of 100% blocking control well)}×100%.
For orientation: In flow cytometry, cells or beads pass a laser one at a time.
As to B1, the “Maximum inhibition rate (%)” value was 17%.
Usually IC50 stands for the concentration that gives 50% inhibition. As to B2, the IC50 came out at 49.6 nM and the “Maximum inhibition rate (%)” value turned out to be 44%.
Turning to B3, the IC50 turned out to be 41.1 nM and the “Maximum inhibition rate (%)” value is 34%.
For B4, half-maximal inhibition (IC50) required 67.6 nM and the “Maximum inhibition rate (%)” value was found to be 58%.

For the next test the target is unchanged. Nature of the test: FACS, CHO-K1/hu OX40 cells. The method, then:
This example is intended to investigate the in vitro binding activity of anti-human OX40 HCAb monoclonal antibodies to human OX40. The antibody binding assay at the cellular level was performed using a stable CHO-K1 cell strain overexpressing human OX40 (CHO-K1/hu OX40). Briefly, the CHO-K1/hu OX40 cells were digested, resuspended in an F12K complete medium and washed once with PBS. The cell density was adjusted to 1×10⁶ cells/mL with PBS. The cells were seeded in a 96-well V-bottom plate (Corning, #3894) at 100 μL/well, and centrifuged, and then the supernatant was discarded. Then, the test antibodies diluted in a 3-fold gradient at concentrations that were 2 times the final concentrations were added at 100 μL/well. The cells were incubated at 4° C. for 1 h away from light. Thereafter, the cells in each well were rinsed twice with 100 μL of pre-cooled PBS, and centrifuged at 500 g at 4° C. for 5 min, and then the supernatant was discarded. […] The plate was incubated away from light at 4° C. for 30 min. The cells in each well were rinsed twice with 100 μL of pre-cooled PBS, and centrifuged at 500 g at 4° C. for 5 min, and then the supernatant was discarded. Finally, the cells in each well were resuspended in 200 μL of pre-cooled PBS, and the fluorescence signal values were read using a BD FACS CANTOII.
As for B1, the EC50 turned out to be 9 nM and the “Maximum MFI” value came out at 2240 MFI.
Take B2: the EC50 was 3.82 nM and the “Maximum MFI” value was determined as 2860 MFI.
Consider B3, for which the EC50 was determined as 7.22 nM and the “Maximum MFI” value came to 3980 MFI.
For B4 the same measures were 4.67 nM and 3010 MFI.

The target in the next test is T4, human PSMA on LNCAP cells (human, UniProt Q04609 1-750).
T4 construct: whole, on cells
T4 sequence (Q04609 whole entry): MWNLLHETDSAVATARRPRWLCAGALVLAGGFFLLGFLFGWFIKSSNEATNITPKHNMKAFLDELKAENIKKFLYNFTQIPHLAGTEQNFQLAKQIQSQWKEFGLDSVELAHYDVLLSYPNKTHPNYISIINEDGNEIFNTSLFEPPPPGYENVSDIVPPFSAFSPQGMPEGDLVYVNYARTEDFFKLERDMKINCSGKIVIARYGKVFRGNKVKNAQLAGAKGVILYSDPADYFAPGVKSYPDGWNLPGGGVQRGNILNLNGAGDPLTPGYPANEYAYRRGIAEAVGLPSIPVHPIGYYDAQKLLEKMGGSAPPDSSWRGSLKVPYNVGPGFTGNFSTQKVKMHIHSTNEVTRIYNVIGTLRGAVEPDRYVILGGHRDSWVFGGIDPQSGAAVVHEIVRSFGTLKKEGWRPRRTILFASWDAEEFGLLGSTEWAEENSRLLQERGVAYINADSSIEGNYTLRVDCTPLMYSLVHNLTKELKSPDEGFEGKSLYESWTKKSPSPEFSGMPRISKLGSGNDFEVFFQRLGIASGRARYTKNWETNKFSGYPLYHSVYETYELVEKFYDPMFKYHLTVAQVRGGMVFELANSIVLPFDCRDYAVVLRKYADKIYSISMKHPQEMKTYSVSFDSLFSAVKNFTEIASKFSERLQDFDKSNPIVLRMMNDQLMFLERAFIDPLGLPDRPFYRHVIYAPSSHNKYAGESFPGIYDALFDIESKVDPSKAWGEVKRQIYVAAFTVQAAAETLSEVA
The test is described as follows: FACS, LNCAP cells (human PSMA). How it is done:
This example is intended to investigate the in vitro binding activity of OX40×TAA bispecific antibodies obtained in Example 9 to tumor-associated antigens (TAAs). […] Briefly, those cells were digested, resuspended in a complete medium, and washed with PBS, and the cell density was adjusted to 1×10⁶ cells/ml with PBS. The cells were seeded in a 96-well V-bottom plate (Corning, #3894) at 100 μL/well, and centrifuged, and then the supernatant was discarded. Then, the test antibodies diluted in a 3-fold gradient were added at 100 μL/well. The cells were incubated at 4° C. for 1 h away from light. Thereafter, the cells in each well were rinsed twice with 100 μL of pre-cooled PBS, and centrifuged at 500 g at 4° C. for 5 min, and then the supernatant was discarded. […] The plate was incubated away from light at 4° C. for 30 min. The cells in each well were rinsed twice with 100 μL of pre-cooled PBS, and centrifuged at 500 g at 4° C. for 5 min, and then the supernatant was discarded. Finally, the cells in each well were resuspended in 200 μL of pre-cooled PBS, and the fluorescence signal values were read using NovoCyte flow cytometer (ACEA Biosciences).
Consider B6, for which a half-maximal effect (EC50) was put at 2.58 nM.

The next test addresses T3, cynomolgus monkey OX40 protein …. Nature of the test: ELISA, coated cyno OX40 protein. The method, then: as §1
A general note: An ELISA detects its analyte on a solid surface through an enzyme-linked reagent.
In the case of B5, it took 0.194 nM to reach a half-maximal effect (EC50) and the “Maximum OD” value was found to be 2.23 OD.
Regarding B1, the EC50 came to 0.276 nM and the “Maximum OD” value amounted to 2.32 OD.
As for B2, the EC50 turned out to be 0.103 nM and the “Maximum OD” value came to 1.92 OD.
Regarding B3, the EC50 came out at 0.441 nM and the “Maximum OD” value was 2.73 OD.
The matching figures for B4: 0.37 nM and 2.44 OD.
